# From paper PMC4337721, “Noncanonical binding of BiP ATPase domain to Ire1 and Perk is dissociated by unfolded protein CH1 to initiate ER stress signaling” (eLife, 2015)
# Where “and” joins values, the source holds several entries; their conditions need not be identical. Equal entries are not always repeated.
# B1: Ire1 luminal domain region II–IV (residues 32–390) (domain or fragment, human, UniProt O75460 32-390, looked up)
# chain: LLFVSTLDGSLHAVSKRTGSIKWTLKEDPVLQVPTHVEEPAFLPDPNDGSLYTLGSKNNEGLTKLPFTIPELVQASPCRSSDGILYMGKKQDIWYVIDLLTGEKQQTLSSAFADSLCPSTSLLYLGRTEYTITMYDTKTRELRWNATYFDYAASLPEDDVDYKMSHFVSNGDGLVVTVDSESGDVLWIQNYASPVVAFYVWQREGLRKVMHINVAVETLRYLTFMSGEVGRITKWKYPFPKETEAKSKLTPTLYVGKYSTSLYASPSMVHEGVAVVPRGSTLPLLEGPQTDGVTIGDKGECVITPSTDVKFDPGLKSKNKLNYLRNYWLLIGHHETPLSASTKMLERFPNNLPKHRENV
# notes: Ire1, human, luminal domain regions II-IV, residues 32-390; With cross linker it forms dimer and tetramer species; also called Ire1 II–IV; Ire1 LD for cross-link experiment; source: E. coli BL21 (DE3), purified (Co2+-NTA, anion exchange, SEC); not shown: His6, N-terminal, cleaved
# B2: Ire1 luminal domain, complete (region I–V, residues 24–440) (domain or fragment, human, UniProt O75460 24-440, looked up)
# chain: STVTLPETLLFVSTLDGSLHAVSKRTGSIKWTLKEDPVLQVPTHVEEPAFLPDPNDGSLYTLGSKNNEGLTKLPFTIPELVQASPCRSSDGILYMGKKQDIWYVIDLLTGEKQQTLSSAFADSLCPSTSLLYLGRTEYTITMYDTKTRELRWNATYFDYAASLPEDDVDYKMSHFVSNGDGLVVTVDSESGDVLWIQNYASPVVAFYVWQREGLRKVMHINVAVETLRYLTFMSGEVGRITKWKYPFPKETEAKSKLTPTLYVGKYSTSLYASPSMVHEGVAVVPRGSTLPLLEGPQTDGVTIGDKGECVITPSTDVKFDPGLKSKNKLNYLRNYWLLIGHHETPLSASTKMLERFPNNLPKHRENVIPADSEKKSFEEVINLVDQTSENAPTTVSRDVEEKPAHAPARPEAPVDSM
# notes: Ire1, human, luminal domain regions I-V, residues 24-440; also called Ire1 I–V; Ire1 LD; source: E. coli BL21 (DE3), purified (Co2+-NTA, anion exchange, SEC); not shown: His6, N-terminal, cleaved
# B3: Ire1 luminal domain region I–IV (residues 24–390) (domain or fragment, human, UniProt O75460 24-390, looked up)
# chain: STVTLPETLLFVSTLDGSLHAVSKRTGSIKWTLKEDPVLQVPTHVEEPAFLPDPNDGSLYTLGSKNNEGLTKLPFTIPELVQASPCRSSDGILYMGKKQDIWYVIDLLTGEKQQTLSSAFADSLCPSTSLLYLGRTEYTITMYDTKTRELRWNATYFDYAASLPEDDVDYKMSHFVSNGDGLVVTVDSESGDVLWIQNYASPVVAFYVWQREGLRKVMHINVAVETLRYLTFMSGEVGRITKWKYPFPKETEAKSKLTPTLYVGKYSTSLYASPSMVHEGVAVVPRGSTLPLLEGPQTDGVTIGDKGECVITPSTDVKFDPGLKSKNKLNYLRNYWLLIGHHETPLSASTKMLERFPNNLPKHRENV
# notes: Ire1, human, luminal domain regions I-IV, residues 24-390; also called Ire1 I–IV; source: E. coli BL21 (DE3), purified (Co2+-NTA, anion exchange, SEC); not shown: His6, N-terminal, cleaved
# B4: Perk luminal domain, complete (region I–V, residues 54–509) (domain or fragment, human, UniProt Q9NZJ5 54-509, looked up)
# chain: TSATRVPAAGAVAAAEVTVEDAEALPAAAGEQEPRGPEPDDETELRPRGRSLVIISTLDGRIAALDPENHGKKQWDLDVGSGSLVSSSLSKPEVFGNKMIIPSLDGALFQWDQDRESMETVPFTVESLLESSYKFGDDVVLVGGKSLTTYGLSAYSGKVRYICSALGCRQWDSDEMEQEEDILLLQRTQKTVRAVGPRSGNEKWNFSVGHFELRYIPDMETRAGFIESTFKPNENTEESKIISDVEEQEAAIMDIVIKVSVADWKVMAFSKKGGHLEWEYQFCTPIASAWLLKDGKVIPISLFDDTSYTSNDDVLEDEEDIVEAARGATENSVYLGMYRGQLYLQSSVRISEKFPSSPKALESVTNENAIIPLPTIKWKPLIHSPSRTPVLVGSDEFDKCLSNDKFSHEEYSNGALSILQYPYDNGYYLPYYKRERNKRSTQITVRFLDNPHYNKN
# notes: Perk, human, luminal domain regions I-V, residues 54-509; see recheck on the SEC MALS mass; also called Perk I–V; Perk LD; source: E. coli BL21 (DE3), purified (Co2+-NTA, anion exchange, SEC); not shown: His6, N-terminal, cleaved
# B5: Perk luminal domain region I–IV (residues 54–403) (domain or fragment, human, UniProt Q9NZJ5 54-403, looked up)
# chain: TSATRVPAAGAVAAAEVTVEDAEALPAAAGEQEPRGPEPDDETELRPRGRSLVIISTLDGRIAALDPENHGKKQWDLDVGSGSLVSSSLSKPEVFGNKMIIPSLDGALFQWDQDRESMETVPFTVESLLESSYKFGDDVVLVGGKSLTTYGLSAYSGKVRYICSALGCRQWDSDEMEQEEDILLLQRTQKTVRAVGPRSGNEKWNFSVGHFELRYIPDMETRAGFIESTFKPNENTEESKIISDVEEQEAAIMDIVIKVSVADWKVMAFSKKGGHLEWEYQFCTPIASAWLLKDGKVIPISLFDDTSYTSNDDVLEDEEDIVEAARGATENSVYLGMYRGQLYLQSSVRI
# notes: Perk, human, luminal domain regions I-IV, residues 54-403; also called Perk I–IV; source: E. coli BL21 (DE3), purified (Co2+-NTA, anion exchange, SEC); not shown: His6, N-terminal, cleaved
# B6: His6-tagged BiP ATPase domain (residues 28–405) (domain or fragment)
# chain: not shown
# notes: BiP, human, ATPase domain, residues 28-405; also called His6-tagged BiP ATPase domain protein; source: E. coli BL21 (DE3), purified (Co2+-NTA, anion exchange, SEC); not shown: His6, N-terminal, kept
# B7: unfolded protein CH1 (immunoglobulin constant heavy chain domain) (domain or fragment)
# chain: not shown
# notes: immunoglobulin constant heavy chain domain CH1, intrinsically unfolded without CL; also called CH1 substrate; source: expressed as previously described (Marcinowski et al., 2011)
# B8: BiP ATPase domain (residues 28–405), His6-tag removed (domain or fragment)
# chain: not shown
# notes: BiP, human, ATPase domain, residues 28-405; also called BiP's ATPase domain; source: E. coli BL21 (DE3), purified (Co2+-NTA, anion exchange, SEC); not shown: His6, N-terminal, cleaved
# Assays:
# [1] = biological target: the molecule itself; assay: cross-linking; EGS, 50-fold molar excess, 1 hr; proteins at 50 μM in 50 mM Hepes pH 8.0, 50 mM NaCl, 5% glycerol, 5 mM DTT; alone or in 1:1 molar mixture; SDS-PAGE and anti-His6 blot
# [2] = biological target: B8; assay: MST; Monolith NT.115; buffer B (50 mM HEPES pH 7.5, 75 mM NaCl, 10% glycerol, 1 mM TCEP), no nucleotide; one partner labelled (Red-NHS) at 50 nM, sixteen twofold dilutions of the unlabelled partner (which was labelled is not told); 25°C; three independent experiments averaged; settings: both partners purified
# [3] = biological target: T1, full-length BiP (BiP FL, residues 28–654), His6-tag removed (human, UniProt P11021 28-654); assay: as above; settings: both partners purified
# T1 construct: BiP (ER Hsp70 chaperone), human, residues 28-654; In MST one partner carried the Red-NHS label; also called ER Hsp70 chaperone; source: E. coli BL21 (DE3), purified (Co2+-NTA, anion exchange, SEC); not shown: His6, N-terminal, cleaved
# [4] = biological target: T2, ΔEspP, yeast Ire1-specific unfolded peptide mimic; assay: ITC; settings: both partners purified
# T2 construct: also called unfolded protein peptide mimic; source: bought: AltaBiosciences
# SEC-MALS = biological target: the molecule itself; assay: SEC-MALS
# [5] = biological target: B1; assay: cross-linking; EGS, 50-fold molar excess, 1 hr; proteins at 50 μM in 50 mM Hepes pH 8.0, 50 mM NaCl, 5% glycerol, 5 mM DTT; alone or in 1:1 molar mixture; SDS-PAGE and anti-His6 blot; settings: both partners purified
# [6] = biological target: T3, BiP substrate binding domain (residues 422–654), His6-tag removed (human, UniProt P11021 422-654); assay: MST; Monolith NT.115; buffer B (50 mM HEPES pH 7.5, 75 mM NaCl, 10% glycerol, 1 mM TCEP), no nucleotide; one partner labelled (Red-NHS) at 50 nM, sixteen twofold dilutions of the unlabelled partner (which was labelled is not told); 25°C; three independent experiments averaged; settings: both partners purified
# T3 construct: also called BiP SBD; source: E. coli BL21 (DE3), purified (Co2+-NTA, anion exchange, SEC); not shown: His6, N-terminal, cleaved
# [7] = biological target: B4; assay: as above; settings: both partners purified
# [8] = biological target: B2; assay: as above; settings: both partners purified
# T1 sequence (P11021 28-654): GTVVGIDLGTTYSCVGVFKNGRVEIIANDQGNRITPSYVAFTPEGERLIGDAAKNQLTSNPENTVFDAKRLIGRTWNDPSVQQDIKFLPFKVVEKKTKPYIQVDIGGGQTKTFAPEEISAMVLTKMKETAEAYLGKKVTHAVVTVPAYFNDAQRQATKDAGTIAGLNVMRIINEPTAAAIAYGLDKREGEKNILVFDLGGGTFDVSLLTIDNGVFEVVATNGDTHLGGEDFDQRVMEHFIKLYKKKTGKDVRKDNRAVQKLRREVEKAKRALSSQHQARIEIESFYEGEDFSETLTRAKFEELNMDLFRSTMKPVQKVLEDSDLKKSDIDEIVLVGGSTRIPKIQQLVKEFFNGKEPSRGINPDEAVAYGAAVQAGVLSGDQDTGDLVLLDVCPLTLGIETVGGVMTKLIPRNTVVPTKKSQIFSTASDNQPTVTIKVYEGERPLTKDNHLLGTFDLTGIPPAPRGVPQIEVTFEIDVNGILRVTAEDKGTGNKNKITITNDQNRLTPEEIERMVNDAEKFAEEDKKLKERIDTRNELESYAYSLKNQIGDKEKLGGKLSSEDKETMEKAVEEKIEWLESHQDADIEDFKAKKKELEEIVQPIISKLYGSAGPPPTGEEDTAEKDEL
# T3 sequence (P11021 422-654): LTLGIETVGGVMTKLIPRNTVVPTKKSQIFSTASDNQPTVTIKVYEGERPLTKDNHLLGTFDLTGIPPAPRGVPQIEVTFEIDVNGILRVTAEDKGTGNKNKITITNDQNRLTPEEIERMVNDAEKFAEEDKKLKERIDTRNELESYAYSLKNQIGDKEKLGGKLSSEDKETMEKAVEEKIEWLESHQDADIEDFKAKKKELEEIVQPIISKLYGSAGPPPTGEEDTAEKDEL
binder,measurement,setting,value
B1,stoichiometry N,[1],2 and 4
same,binding result,[2],binds
B2,Kd,[3],1.33 µM
same,Kd,[4],6.4 µM
same,stoichiometry N,SEC-MALS,2
B3,binding result,[2],binds
B4,Kd,[3],1.92 µM
same,Kd,[4],9.3 µM
same,stoichiometry N,SEC-MALS,2
B5,binding result,[2],binds
B6,stoichiometry N,[5],1 1:1 and 2 2:1 (which of the two stands twice is not said)
B7,Kd,[6],5.1 µM
same,Kd,[3],8.7 µM
B8,Kd,[7],2.05 µM
same,Kd,[8],1.97 µM
